Patent publication US10323078B2, “Isolated peptides and fragments thereof from fibrinogen for use as drugs, particularly in skin inflammatory diseases” (Universite Paris Descartes, priority 2015, dated 2019)

Assays:
[1] = tested on: P. acnes RON strain; assay: Adhesion assay, biotinylated P. acnes binding to monocytes (ThP1); type: cell-based, Propionibacterium acnes; conditions: monocytes (THP-1); bacteria pretreated 0.87 to 7 μM, 1 h at 37° C.
Method: FIG. 13: Dose-dependent inhibition of P. acnes RON binding to monocytes cell line. Biotinylated P. acnes RON strain at concentrations adjusted to 0.1 of absorbance at 600 nm was pre-treated with the recombinant peptides Fg1 and Fg2 and incubated 1 h at 37° C. with the human immortalized monocytes cell line ThP1. After removal of unbound bacteria, adhesion activity was detected at 410 nm. Data are means±S.D. of three separate experiments. Statistical significance is indicated by * (P<0.05), ** (P<0.01), *** (P<0.001), and **** (P<0.0001), respectively.
The bacterial suspension was adjusted at 600 nm to the desired concentration, pretreated with peptides Fg1 and Fg2 at the final concentration ranging from 0.87 to 7 μM for 1 h at 37° C. and deposited on the previously saturated cells with a solution of PBS SVF 2% for 2 h. After incubation for 1 h at 37° C., unbound bacteria are removed by 3 washes with PBS and fixed bacteria are detected by a streptavidin-peroxidase solution of 0.5 μg/ml for 30 min.
Whole P. acnes bacteria are labelled by biotinylation, pre-treated or not with the peptides and contacted with the various cell lines. After removal of the unfixed bacteria, the adhesion activity was measured spectrophotometrically by using the streptavidin-peroxidase conjugate and a chromogenic substrate. […]

[2] = tested on: HaCaT cells; assay: IL-8 production by P. acnes-stimulated HaCaT (ELISA); type: cell-based, human; conditions: 0.87 to 7 μM
Method: (§1) For experiences of stimulation with P. acnes, cells were incubated with the P. acnes suspension adjusted at the appropriate concentration, pre-treated for 1 h at 37° C. or not with fibrinogen recombinant peptides Fg1 and Fg2 at the concentrations 0.87, 1.75, 3.5 or 7 μM for the desired period of time at 37° C. in 5% CO2.
(§2) Human IL-1ß, IL-8, IL-12, hBD-2, and TNF-α protein concentration was measured in the supernatants of stimulated cells using various ELISA Set kits (Ready-Set-Go kit from eBioscience for acne experiments, and for psoriasis experiments the Duo set IL-8 kit from R&D Systems and the BD-2 Human Development (hBD-2) from Peprotech) according to the manufacturer's instructions. We used serial dilutions of recombinant human IL-1ß, IL-8, IL-12 and TNF-α for standard curve. The optical density was determined at 450 nm at a wavelength correction of 540 nm.
To assess the efficacy of Fg1 recombinant peptide, the production of O2^∘− and H2O2 by HaCaT cells NHDK, THP-1, MRC5 and HDF stimulated by pretreated P. acnes strains 6919, RON and PIE was measured. The amount of ROS produced was compared to that produced by the stimulated cells with untreated bacteria. Production baseline was obtained by measuring ROS on unstimulated cells. The production of IL-1ß, IL-8, IL-12 and TNF-α was also measured in all conditions cited above. The measurement of the production of ROS is performed by spectrofluorimetry in the presence of specific fluorochromes directly on the monolayer cell. Measurement of cytokine production was performed in parallel on the cell culture supernatant.
Two sets of experiments were implemented: 1) The cells were stimulated (18 h at 37° C.) by P. acnes strains previously pretreated with Fg1 and Fg2 peptides at the final concentrations ranging from 0.87 to 7 μM for 1 h at 37° C.; and 2) The cells were pretreated first with Fg1 and Fg2 peptides at the final concentrations ranging from 0.87 to 7 μM for 24 h at 37° C. and stimulated (18 h at 37° C.) by P. acnes strains. […]
Immortalized keratinocytes HaCaT cell were seeded in 96-well plates at 10^5 cells/well (Corning Costar, Brumath, France) and stimulated with P. acnes 6919 strain (O.D.620 nm=0.3) pretreated 1 h at 37° C. with the Fg1 and Fg1.1.1 peptides at the concentrations of 2.5, 5 and 10 μM for 18 h at 37° C. under 5% CO2. Then, culture supernatant was removed and the IL-8 concentration was measured by ELISA assay (eBioscience).

[3] = tested on: monocytes and fibroblasts; assay: TNF-α production by cells stimulated with P. acnes, overall statement; type: cell-based, human; conditions: the 3 bacterial tested strains
Method: as §1, §2
To assess the efficacy of Fg1 recombinant peptide, the production of O2^∘− and H2O2 by HaCaT cells NHDK, THP-1, MRC5 and HDF stimulated by pretreated P. acnes strains 6919, RON and PIE was measured. The amount of ROS produced was compared to that produced by the stimulated cells with untreated bacteria. Production baseline was obtained by measuring ROS on unstimulated cells. The production of IL-1ß, IL-8, IL-12 and TNF-α was also measured in all conditions cited above. […]

B1: MKRMVSWSFHKLKTMKHLLLLLLCVFLVKSQGVNDNEEGFFSARGHRPLDKKREEAPSLRPAPPPISGGGYRARPAKAAATQKKVERKAPDAGGCLHADPDLGVLC (protein)
chain: MKRMVSWSFHKLKTMKHLLLLLLCVFLVKSQGVNDNEEGFFSARGHRPLDKKREEAPSLRPAPPPISGGGRARPAKAAATQKKVERKAPDAGGCLHADPDLGVLCMKRMVSWSFHKLKTMKHLLLLLLCVFLVKSQGVNDNEEGFFSARGHRPLDKKREEAPSLRPAPPPISGGGYRARPAKAAATQKKVERKAPDAGGCLHADPDLGVLC
modifications: GST fusion; fragment Fg1
notes: fragment of Bß chain of human fibrinogen having 106 amino acids; recombinant GST-fused peptide expressed in E. coli
[1]
  Inhibition of adhesion of P. acnes RON strain: inhibits the adhesion of RON strain in a dose-dependent manner
[2]; P. acnes 6919, set I, bacteria first pretreated
  Inhibition of Interleukine 8 (IL-8) production: pos
[2]; P. acnes 6919, set II, cells first pretreated
  Inhibition of Interleukine 8 (IL-8) production: pos
[2]; P. acnes PIE, set I, bacteria first pretreated
  Inhibition of Interleukine 8 (IL-8) production: pos
[2]; P. acnes PIE, set II, cells first pretreated
  Inhibition of Interleukine 8 (IL-8) production: pos
[2]; P. acnes RON, set I, bacteria first pretreated
  Inhibition of Interleukine 8 (IL-8) production: pos
[2]; P. acnes RON, set II, cells first pretreated
  Inhibition of Interleukine 8 (IL-8) production: pos
[3]
  Decrease of the production of TNF-α: dose-response effect on the decrease of the production of TNF-α
